Source: the DeepSol protein solubility set

Experiment: soluble on expression in E. coli; label from the status in PepcDB or PDB records

| Sequence | soluble on expression in E. coli |
| --- | --- |
| MDYYYSLISPPCQSAILLAKKLGITLNLKKTNVHDPVERDALTKLNPQHTIPTLVDNGHVVWESYAIVLYLVETYAKDDTLYPKDPKVRSVVNQRLFFDIGTLYKRIIDVIHLVMKKEQPSDEQMEKLKGALDLLEQFVTERAYAAADHLTVADICLLGTVTALNWLKHDLEPFPHIRAWLERVRAEMPDYEEFSKQVADDTLAYVASRK | soluble |
| MGSDKIHHHHHHMMKISFIIATLNSGGAERALVTLANALCKEHEVSIIKFHAGESFYKLENEVKVTSLEQFRFDTLYHKIASRFKKFFALRKALKESKSDVFISFLDTTNIACIAAKIGLKTPLIISEHSNEAYLKPKIWRFLRRVSYPFCDALSVLGSSDKVYYERFVKRVKLLLNPCHFSDEISFDSSFEKENLVLFIGRLDHNKNPVMFLKAIAHLDKNLQENYKFVIAGDGQLRQELEYKVKSLGIKVDFLGRVENVKALYEKAKVLCLCSFVEGLPTVLIESLYFEVCRISSSYYNGAKDLIKDNHDGLLVGCDDEIALAKKLELVLNDENFRKELVNNAKQRCKDFEISHIKEEWLKLIAEVKNA | not soluble |
| MKVLVTGATSGLGRNAAQWLLEAGHEVYAIGRDQLAGEELRKLGATFIPLDLTMTTMEVCQQWLKTCDVVWHCAAKSAPWGNPQDFHQTNVVVTHKLAQAAGREGVKRFIHISSPAVYFDFRHHHDLPETYRASRFSSHYASSKYAAEQVLHECIAHYPDTTYVILRPRGLFGPHDRVIVPRLLQQLSRDRNVLRLPGGGQAQLDLTFVLNVVHAMMLATDNDGLRSGAIYNITNQEPQRLVTMLDSLLNQQLHINYTLQPVPYSLLSVVAAGMELVASMTQKEPLLTRYSVGAVYFDMTLNSERAINELGYRPRYSMAEGIVLAGEWLSAQRSGQHG | not soluble |
| ALSAKLTLDKVDLKGKRVIMRVDFNVPMKNNQITNNQRIKAAIPSIKHCLDNGAKSVVLMSHLGRPDGIPMPDKYSLEPVADELKSLLNKDVIFLKDCVGPEVEQACANPDNGSIILLENLRFHVEEEGKGKDSSGKKISADPAKVEAFRASLSKLGDVYVNDAFGTAHRAHSSMVGVNLPQKASGFLMKKELDYFSKALEKPERPFLAILGGAKVKDKIQLIKNMLDKVNFMIIGGGMAYTFLKELKNMQIGASLFDEEGATIVKEIMEKAEKNGVKIVFPVDFVTGDKFDENAKVGQATIESGIPSGWMGLDCGPESIKINAQIVAQAKLIVWNGPIGVFEWDAFAKGTKALMDEVVKATSNGCVTIIGGGDTATCCAKWGTEDKVSHVSTGGGASLELLEGKILPGVEALSNM | soluble |
| MGSDKIHHHHHHMQLSKAAEMCYEITNSYLHIDQKSQIIASTQEAIRLTRKYLLSEIFVRWSPLNGEISFSYNGGKDCQVLLLLYLSCLWEYFFIKAQNSQFDFEFQSFPMQRLPTVFIDQEETFPTLENFVLETSERYCLSLYESQRQSGASVNMADAFRDFIKIYPETEAIVIGIRHTDPFGEALKPIQRTDSNWPDFMRLQPLLHWDLTNIWSFLLYSNEPICGLYGKGFTSIGGINNSLPNPHLRKDSNNPALHFEWEIIHAFGKDAEGERSSAINTSPISVVDKERFSKYHDNYYPGWYLVDDTLERAGRIKN | not soluble |
| SNAMNILIIGNGGREHALGWKAAQSPLADKIYVAPGNAGTALEPTLENVDIAATDIAGLLAFAQSHDIGLTIVGPEAPLVIGVVDAFRAAGLAIFGPTQAAAQLEGSKAFTKDFLARHNIPSAEYQNFTDVEAALAYVRQKGAPIVIKADGLAAGKGVIVAMTQEEAETAVNDMLAGNAFGDAGHRIVVEEFLDGEEASFIVMVDGENVLPMATSQDHKRVGDGDTGPNTGGMGAYSPAPVVTDDVHQRVMDQVIWPTVRGMAAEGNIYTGFLYAGLMISADGQPKVIEFNCRFGDPETQPIMLRMRSDLVELCLAGTQGKLNEKTSDWDERPSLGVVLAAGGYPADYRQGDVIHGLPQQEVKDGKVFHAGTKLNGNHEVVTNGGRVLCVTALGETVAQAQQYAYQLAEGIQWEGVFCRKDIGYRAIARGK | soluble |
| MNTPAQRHFTLEPANAERLADLSGCFNEHLRQIELRLGVEIANRGHTFHITGPEPAVTSTETLLRALYAEATGTTFNNHTIQLRLSEAHMAQIVEQTDTPQDIGIRVKRGTVRGHGANQTKYLHKIATHDINFGIGPAGTGKTFLAVASAVEALNESRVQRLILVRPAVEAGEKLGFLPGDLNQKIDPYLRPLYDALYEMLGVEKVLKLLEKNIIEIAPLAYMRGRTLNNAFVILDEAQNTTIEQMKMFLTRLGFGSTAVVTGDLTQIDIPKHLKSGLDDAIEVLHDIEGISFTFFKSHDVVRHPLVARIVSAYDKHNTHPSTTKPA | not soluble |
| MGSDKIHHHHHHMTTLDRKIDFTVILSVTKANPNGDPLNGNRPRQNYDGYGEISDVAIKRKIRNRLQDMGESIFVQSNDRNLDGYASLRDRAEANDTIKKLMKTKNASDQVAAEACATWMDVRAFGQVFAFKGDKAGGVSVGVRGPVSIHTATSVAPIDVTSMQITKSVNSESGKERGSDTMGMKHRVDHGVYVFNGSINTQLAEKTNFTQEDAEKFKLALVSLFENDASSARPEGSMEVHKVYWWEHDSKLGRFSSAKVHRAVSVQALTDEPKSFLDYEIKVDALEGFTPEILDGL | not soluble |
| MGSDKIHHHHHHMRNIVFTGKGGVGKTSIAASTAVRAAALGYKTLVISTDPAHSLGDSFDIELGPSPVKVAENLWGQEVSVYGDLSLNWEVVREHFAHLMEVQGIEGIYVEEMGVLPGMEELFSLSYIKRYNESSEYDLLVVDCAPTGETLRLLSIPETFGWMLKLMRNMEKYVVKPVIRPLSKRISRLHDFVPDTDVYDQVDHLFSSVEGIIELLSDNSKTTVRLVMNPEKMVVKESMRALTYLNLYNITIDQIVINRVYMDDVDGQYFKGWKEIQKKYIAEIESSFGPIPITRVPLFRTEVLGLEMLKKVGETVYGDRNPLDIFYHEEHTEIVKPGEGHYVMKLRLPFVFDNRMEANIVQVGDLLTIRIGNHQKSVVLPTFLAGMKVTHAGYEEKWLAIEFRKKETAK | not soluble |
| SLLPSFFPCCRCKWSATGCGTCSTQDCEGICKMTSGEQAKTPLQAPILLTNVKPVGFGKGASQSSTDILIGGDGKIAAVGSALQAPADTQRIDAKGAFISPGWVDLHVHIWHGGTDISIRPSECGAERGVTTLVDAGSAGEANFHGFREYIIEPSRERIKAFLNLGSIGLVACNRVPELRDIKDIDLDRILECYAENSEHIVGLKVRASHVITGSWGVTPVKLGKKIAKILKVPMMVHVGEPPALYDEVLEILGPGDVVTHCFNGKSGSSIMEDEDLFNLAERCAGEGIRLDIGHGGASFSFKVAEAAIARGLLPFSISTDLHGHSMNFPVWDLATTMSKLLSVDMPFENVVEAVTRNPASVIRLDMENRLDVGQRADFTVFDLVDADLEATDSNGDVSRLKRLFEPRYAVIGAEAIAASRYIPRARKLVRHSHGYSWR | soluble |
| MGSDKIHHHHHHMGQPFVHPTGVTIYNPEKCFNGYTIMQAPGLGCVLIDMNGNVVRVFKDLHGFPNKLLPGGYVMGSRGRRNGKFGYQDQIDLVQVDWDGQVVWEFAKKEYIEDEGEKPQWMARQHHDYQREGNPVGYYVPGMECKTNSGNTLILSHQNCYHKKISDKQLLDDVIIEVDWDGNIVWEWHAVDHFHEYGFSAAAKLALYRNPNMHEAGGGMGDWMHINSASVLGPNKWYDKGDERFHPDNIIWDAREANIMAIISKETGKVVWKMGPDFAQDKKLRKIGQIIGQHHVHMIPQGLPGAGNILIFDNGGWAGYGAPNNVSKDGTKVDMADRSRVLELNPVTMEVVWQLKASELMDYGQPGISDYRFYSPLTSAAQRLPNGNTLITEGCGGRFFEVTRMKEVVWEFISPFNANPATIYYRAYRYPYSYVPQLPEPKETPVPMLDIRKFRVPGAASCEVQHVVGVEGTIGYPAMQQACVAAADQDLSLKDDDDDDLFSRSF | not soluble |
| MGSDKIHHHHHHMLENTGLVLEGGGMRGVYTGGILEYFMEQDLYFPYVIGVSAGACHAASYLSRQRNRNKTVNIDYASHPKYLSYKNLWRKRQLFDMDFIFHEIPEKHVPFDFETYFNSPERFLVGTTDCETGQSVYFEKEGTNDDALNLLQASSSLPFIAPVVNYRGKQLLDGGISDPIPVRKAQEDGFKKSVVILTRNHGYAKKKSRFGWIAAKAYKKYPNLVNTMLNRYEVYNETLHYIEKEEQAGNLFVIRPEVPLQVDRMEKDTAKLQNLYEQGYEDAKRQFADLKAFLQK | not soluble |
| MSHHHAPVDFEKEASILRNHFNNAEIDLLLLIKKHVMYGAKNPTKWKFIQQSRLIRFKRELKAHISLFKDETRNKIDKLTYRVYLDCVNEYEDEMEARYQTKKEVDIQNDDYLSESDALIQISEDMANYWQKIAPSKYKQVVKETKDSNGVLKYAIATSLINVLGDGIRNVIDQSGRKYRPGAYMEMASRGAFFNVGLNAMKRVLGRYEHELVQVSAHVRSCPRCAPWQGEVLSVNYESNEYKTLQEAENDGLFHPNCHHFLYSYFEGDETDEPIPYDEEEYEAQSKQRYYERGIRDWKTKDILAEGPSKQYTAGKVKQWEEALQEHLNNN | not soluble |
| MGSDKIHHHHHHMLITCSESGIDFGKSLSTYIHEYLGLNRNCRLFEVKQACYSGTAGFQMAVNFILSQTSPGAKALVIASDISRFLIAEGGDALSEDWSYAEPSAGAGAVAVLVGENPEVFQIDPGANGYYGYEVMDTCRPIPDSEAGDSDLSLMSYLDCCEQTFLEYQKRVPGANYQDTFQYLAYHTPFGGMVKGAHRTMMRKVAKVKTSGIETDFLTRVKPGLNYCQRVGNIMGAALFLALASTIDQGRFDTPKRIGCFSYGSGCCSEFYSGITTPQGQERQRTFGIEKHLDRRYQLSMEEYELLFKGSGMVRFGTRNVKLDFEMIPGIMQSTQEKPRLFLEEISEFHRKYRWIS | not soluble |
| MGSDKIHHHHHHMRATLKIAEPPVVSPSEDELRELENLYCSHGDTVHYTDKPKFFEGCEGSFVYDASQTPFLDLQMWYSAVNFGYRNERLNNAAHRQLDQLPQVASQYLHREKVELAALIARDAEQKFGHKGRVHFNVGGSQAVEDSLKLVRNFTGGKSLMFAFEGGYHGRTLGASAITSSYRYRRRYGHFSDRAQFIEFPYHFRGPKGMSKEEYGEVCVQKFARLFESEYNGVWDPKAGKSEYAAFYVEPIQGTGGYVIPPMNFFTGLKKVLDDHGILLVVDEIQMGVYRTGKLWSIEHFGVSPDVLVFGKAITNGLNPLSGIWAREEMINPTIFPPGSTHSTFASNPMGTAVALETMKMVGEGDFGASVMEKGARFLDGLKVLEKRHAIVGDVDGLGLALRMEICKEDGFTPDKATLDWMSDEGMKGDMVVDGKTYGLVLDVGGYHKNVITLAPNLMISNSEIDLALTLLDQLLTRAARR | not soluble |
| MGSDKIHHHHHHMEITIFGKGNMGQAIGHNFEIAGHEVTYYGSKDQATTLGEIVIMAVPYPALAALAKQYATQLKGKIVVDITNPLNFDTWDDLVVPADSSAAQELQQQLPDSQVLKAFNTTFAATLQSGQVNGKEPTTVLVAGNDDSAKQRFTRALADSPLEVKDAGKLKRARELEAMGFMQMTLAASEQIGWTGGFAVVK | not soluble |
| MSMSHINYNHLYYFWHVYKEGSVVGAAEALYLTPQTITGQIRALEERLQGKLFKRKGRGLEPSELGELVYRYADKMFTLSQEMLDIVNYRKESNLLFDVGVADALSKRLVSSVLNAAVVEGEPIHLRCFESTHEMLLEQLSQHKLDMIISDCPIDSTQQEGLFSVRIGECGVSFWCTNPPPEKPFPACLEERRLLIPGRRSMLGRKLLNWFNSQGLNVEILGEFDDAALMKAFGAMHNAIFVAPTLYAYDFYADKTVVEIGRVENVMEEYHAIFAERMIQHPAVQRICNTDYSALFSPAVR | soluble |
| MSGPNGDLGMPVEAGAEGEEDGFGEAEYAAINSMLDQINSCLDHLEEKNDHLHARLQELLESNRQTRLEFQQQLGEAPSDASP | soluble |
